Positions count from the first letter of the chain named.
T1: recombinant human complement component C1s (rhC1s) (human, UniProt P09871 16-688)
T1 sequence (looked up): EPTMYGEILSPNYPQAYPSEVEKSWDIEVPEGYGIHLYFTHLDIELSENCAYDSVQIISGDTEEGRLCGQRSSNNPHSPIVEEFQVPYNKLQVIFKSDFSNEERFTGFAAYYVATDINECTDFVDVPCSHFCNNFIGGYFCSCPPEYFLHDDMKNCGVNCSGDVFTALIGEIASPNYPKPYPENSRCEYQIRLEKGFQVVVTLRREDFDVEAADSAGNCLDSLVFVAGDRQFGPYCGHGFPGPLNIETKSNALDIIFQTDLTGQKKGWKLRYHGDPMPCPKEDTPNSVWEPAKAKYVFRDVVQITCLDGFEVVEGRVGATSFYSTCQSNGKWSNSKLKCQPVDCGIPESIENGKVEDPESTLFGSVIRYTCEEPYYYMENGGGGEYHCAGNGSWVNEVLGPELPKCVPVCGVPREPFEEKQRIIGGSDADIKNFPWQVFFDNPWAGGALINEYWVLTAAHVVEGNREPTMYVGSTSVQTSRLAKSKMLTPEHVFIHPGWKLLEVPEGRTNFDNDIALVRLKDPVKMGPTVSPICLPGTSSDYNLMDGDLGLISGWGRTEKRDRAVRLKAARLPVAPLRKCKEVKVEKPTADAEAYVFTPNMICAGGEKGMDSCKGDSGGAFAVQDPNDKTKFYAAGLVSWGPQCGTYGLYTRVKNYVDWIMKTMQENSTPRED

T2: Pro-C1s
T2 construct: also called purified pro-C1s protein
T2 chain: T1 sequence (looked up)

T3: purified human activated C1s protein, two-chain form (Homo sapiens, UniProt P09871 16-688)
T3 construct: Purified protein bought from EMD Millipore; Biotin-labeled in the clone screen; also called active C1s; native C1s protein
T3 sequence: T1 sequence (looked up)

B1: antibody IPN-M18 (antibody, V domains shown)
VH: EVQLQQSGPELVKPGASVKISCKASGYSFTGYYIHWVKQSPEKSLEWIGEINPTTNDTTYNQKFKAKATLTVDKSSNTAYMQLKSLTSEDSAVYYCSRDISGPAWFAYWGQGTLVTVSA
VL: DIVLTQTTAIMSASPGEKVTMTCSASSSISYMYWFQQKPGTSPKRWIYDTSKLASGVPARFSGSGSGTSYSLTISTMEAEDAATYYCHQRSSDPTFGGGTKLEINR
notes: Mouse monoclonal antibody (NZBW hybridoma)
B2: antibody IPN-M1 (antibody, V domains shown)
VH: EVQLQQSGAELVRPGASVKLSCTASGFNIKDDYIHWVKQRPEQGLEWIGRIDPADDHTKYAPKFQDKATMTADTSSNTACLQLNSLTSEDTAVYYCAIYGSGWAWFPYWGQGTLVSVSA
VL: DIVLTQSTDYLAVSLGQRATISCKASQSVDYDGDSYMNWYQQKPGQPPKLLIYAASNLESGIPARFSGSGSGTDFTLNIHPVEEEDAATYYCQQSNEDPWTFGGGTKLEIK
notes: Mouse monoclonal antibody (NZBW hybridoma); of the 17, thirteen were IgG2a, one IgG2b, three IgG1; Same VL and VH as IPN-M3 and IPN-M13
B3: antibody IPN-M8 (antibody, V domains shown)
VH: EVKLQQSGAELVRPGASVKLSCTASGFNIKDDYIHWVKQRPEQGLEWIGRIDPADGHTKYAPKFQVKATITADTSSNTAYLQLSSLTSEDTAVYYCARYGYGREVFDYWGQGTTLTVSS
VL: B2 VL with T8P, D9A, Y10S, P44T, L50I, A54D, T89I
notes: Mouse monoclonal antibody (NZBW hybridoma); Same VL and VH as IPN-M2
B4: antibody IPN-M15 (antibody, V domains shown)
VH: B2 VH with Q3K, Q5E
VL: B2 VL with D1F, I2A, V3L, L4M, A64T, S71F, T106P
notes: as for B1
B5: antibody IPN-M3 (antibody, V domains shown)
VH: B2 VH
VL: B2 VL
notes: Mouse monoclonal antibody (NZBW hybridoma); Same VL and VH as IPN-M1 and IPN-M13
B6: antibody IPN-M2 (antibody, V domains shown)
VH: B3 VH
VL: B2 VL with T8P, D9A, Y10S, P44T, L50I, A54D, T89I
notes: Mouse monoclonal antibody (NZBW hybridoma); Same VL and VH as IPN-M8
B7: antibody IPN-M28 (antibody, V domains shown)
VH: B2 VH
VL: B2 VL with S7T, T8P
notes: as for B1
B8: antibody IPN-M14 (antibody, V domains shown)
VH: B3 VH
VL: DIVLTQFPTFLAVFLGQRAPISCKASQSVDYDGDSYMNWFQQKTGQPPKILIYDASNLEFGIPTRFSGSGFGTDFPLNIHPVEEEDAAIYFCQQSNEDPWTFGGGPKLEIK
notes: as for B1
B9: antibody IPN-M9 (antibody, V domains shown)
VH: QVQLQQPGAELVRPGASVKLSCKVSGYTFTRYWMHWVKQRPGQGLEWIGEINPSNSDTDYNEEFKSKATLTVDKSSSTAYMHLSSLTSEDSAVYYCTIDDSAYGWFAYWGQGTLVTVSA
VL: DIVMTQSPAIMSASPGERVTMTCSASSSISYMHWYHQKPGTSPKRWIYDTSKLASGVPARFSGSGSGTSYSLTISSMEAEDAATYYCHQRSSFPTFGAGTKLELK
notes: as for B1
B10: antibody IPN-M24 (antibody, V domains shown)
VH: EVKLQQSGAELVRPGVSVKISCKVSGYTFTDYAMHCVKQSHAKSLEWIGVISIYNGDASYNQKFKDKATMTVDKSSSTSYMDLARLTSEESAVYNCVREAPYLITTVFYAMDYWGQGTSVTVSS
VL: B9 VL with R18K, S26N, H36Q, A59T, S92F, F93Y, P94L, A98S, L104I
notes: as for B1
B11: antibody IPN-M33 (antibody, V domains shown)
VH: QVKLQQSGPELVKPGTSVRISCKTSGYSFTGYYMHWVKQSPEKSLEWIGEINPSIGDITYNQRFKAKATLTVDKSSSTAYMQLKSLTSEDSAVYYCASDYYGGGFAWFAYWGQGTLVTVSA
VL: B9 VL with P15S, R18K, S30N, H36Q, A82T, S92D, F93S, P94L, A98S, L104I
notes: as for B1
B12: antibody IPN-M29 (antibody, V domains shown)
VH: EVQLQQSGPELVKPGASVKISCKASGYSFTGFYMQWVKQSPEKNLEWIGEINPTTGDETYNQKFQAKATLTVDKSSSTAYMQLKSLTSEDSAVYFCASDFYDGSFAWFEYWGKDYLTVSA
VL: B9 VL with M4L, A9V, R18K, M32I, H36Q, F93Y, P94L, A98S, L104I
notes: as for B1
B13: antibody IPN-M10 (antibody, V domains shown)
VH: B9 VH with A102V
VL: B9 VL with M4I
notes: as for B1
B14: antibody IPN-M23 (antibody, V domains shown)
VH: B9 VH with A102V
VL: B9 VL with S12F, H33P, H36P, T41P, S66F, S69F, T84P, T95P
notes: as for B1
B15: antibody IPN-M27 (antibody, V domains shown)
VH: B9 VH with P7S, S85N
VL: B9 VL with M4L, P8T, T73A
notes: as for B1

target: T1, recombinant human complement component …; assay: cell-based or functional assay

| Binder | inhibition of C1s protease activity (relative to nafamostat) [%] |
| --- | --- |
| B1 | > 50 |
| B2 | > 50 |
| B3 | > 50 |
| B4 | > 50 |
| B5 | > 50 |
| B6 | > 50 |
| B7 | > 50 |
| B8 | > 50 |
| B9 | > 50 |
| B10 | > 50 |
| B11 | > 50 |
| B12 | > 50 |
| B13 | > 50 |
| B14 | > 50 |
| B15 | > 50 |

target: T1, recombinant human complement component …; assay: cell-based or functional assay; remark: another data set of the same source

| Binder | Inhibition of C1s Protease Activity (%), single point with clone supernatant, relative to 100 nM nafamostat [%] |
| --- | --- |
| B1 | 68 |
| B2 | 79 |
| B3 | 100 |
| B4 | 100 |
| B5 | 89 |
| B6 | 100 |
| B7 | 92 |
| B8 | 100 |
| B9 | 69 |
| B10 | 68 |
| B11 | 97 |
| B12 | 73 |
| B13 | 67 |
| B14 | 74 |
| B15 | 64 |

Target: T2, Pro-C1s
Assay: bio-layer interferometry (BLI), kinetic analysis

| Binder | Kd [nM] | koff [s⁻¹] | kon [M⁻¹ s⁻¹] |
| --- | --- | --- | --- |
| B1 | 1.89 | 0.000395 | 209000 |
| B2 | 92.5 | 0.000392 | 4120 |
| B3 | 19.7 | 0.000178 | 9080 |
| B4 | 3.37 | 0.000194 | 57500 |
| B5 | 102 | 0.00041 | 4040 |
| B6 | 42.3 | 0.000197 | 4660 |
| B7 | 16.7 | 0.000178 | 10600 |
| B8 | 13.5 | 0.000223 | 16500 |
| B9 | 4.69 | 0.000299 | 63700 |
| B10 | 4.46 | 0.00036 | 80800 |
| B11 | 0.3 | 2.52e-05 | 83800 |
| B12 | 5.55 | 0.000408 | 73600 |
| B13 | 7.98 | 0.000339 | 42500 |
| B14 | 7.17 | 0.000347 | 48400 |
| B15 | 11.1 | 0.000283 | 25400 |

target: T3, purified human activated C1s protein, …; assay: bio-layer interferometry (BLI), kinetic analysis

| Binder | Kd [nM] | koff [s⁻¹] | kon [M⁻¹ s⁻¹] |
| --- | --- | --- | --- |
| B1 | 1.98 | 0.00102 | 517000 |
| B2 | 0.26 | 0.000213 | 817000 |
| B3 | 0.213 | 0.000234 | 1.12e+06 |
| B4 | 0.172 | 0.000149 | 858000 |
| B5 | 0.187 | 0.000158 | 845000 |
| B6 | 0.291 | 0.000279 | 957000 |
| B7 | 0.236 | 0.000215 | 914000 |
| B8 | 0.207 | 0.000231 | 1.12e+06 |
| B9 | 0.608 | 0.000361 | 594000 |
| B10 | 1.01 | 0.000499 | 492000 |
| B11 | 0.329 | 0.000154 | 467000 |
| B12 | 1.28 | 0.000594 | 463000 |
| B13 | 0.607 | 0.000369 | 608000 |
| B14 | 0.57 | 0.000353 | 619000 |
| B15 | 0.593 | 0.000394 | 664000 |

— patent US20200079876A1 (BIOVERATIV USA, published 2020)
